Assay results: the Human Domainome abundance scans (Beltran et al. 2025)
± gives the uncertainty stated by the source.

B1: Double-stranded RNA-binding protein Staufen homolog 1, residues 183 to 249; numbered along this chain, O95793 (parent)
chain: KSEISQVFEIALKRNLPVNFEVARESGPPHMKNFVTKVSVGEFVGEGEGKSKKISKKNAAIAVLEEL

Variants of: B1
Assay: abundance fitness (aPCA) (normalised: wild type 0, dead -1); higher = more abundant; growth selection in yeast, the domain comes from the species named
Conditions: Homo sapiens

KSEISQVFEIALKRNLPVNFEVARESGPLHMKNFVTKVSVGEFVGEGEGKSKKISKKNAAIAVLEEL and KSEISQVFEIALKRNLPVNFEVARESGPVHMKNFVTKVSVGEFVGEGEGKSKKISKKNAAIAVLEEL are within error of each other in abundance fitness: -0.273 ± 0.038 for the first, -0.205 ± 0.045 for the second.

Compared with KSEISQVFEIALKRNLPVNFEVARESGPYHMKNFVTKVSVGEFVGEGEGKSKKISKKNAAIAVLEEL, KSEISQVFEIALKRNLPVNFEVARESGPTHMKNFVTKVSVGEFVGEGEGKSKKISKKNAAIAVLEEL is higher in abundance fitness: -0.259 ± 0.073 for the first, -0.111 ± 0.045 for the second.

KSEISQVFEIALKRNLPVNFEVARESGPIHMKNFVTKVSVGEFVGEGEGKSKKISKKNAAIAVLEEL and KSEISQVFEIALKRNLPVNFEVARESGPMHMKNFVTKVSVGEFVGEGEGKSKKISKKNAAIAVLEEL are within error of each other in abundance fitness: -0.205 ± 0.081 for the first, -0.114 ± 0.046 for the second.

KSEISQVFEIALKRNLPVNFEVARESGPSHMKNFVTKVSVGEFVGEGEGKSKKISKKNAAIAVLEEL and KSEISQVFEIALKRNLPVNFEVARESGPRHMKNFVTKVSVGEFVGEGEGKSKKISKKNAAIAVLEEL are within error of each other in abundance fitness: -0.04 ± 0.04 for the first, -0.08 ± 0.032 for the second.

KSEISQVFEIALKRNLPVNFEVARESGPKHMKNFVTKVSVGEFVGEGEGKSKKISKKNAAIAVLEEL and KSEISQVFEIALKRNLPVNFEVARESGPHHMKNFVTKVSVGEFVGEGEGKSKKISKKNAAIAVLEEL are within error of each other in abundance fitness: -0.061 ± 0.047 for the first, -0.105 ± 0.1 for the second.

Compared with KSEISQVFEIALKRNLPVNFEVARESGPWHMKNFVTKVSVGEFVGEGEGKSKKISKKNAAIAVLEEL, KSEISQVFEIALKRNLPVNFEVARESGPPKMKNFVTKVSVGEFVGEGEGKSKKISKKNAAIAVLEEL is higher in abundance fitness: -0.274 ± 0.042 for the first, 0.022 ± 0.052 for the second.

First: KSEISQVFEIALKRNLPVNFEVARESGPPLMKNFVTKVSVGEFVGEGEGKSKKISKKNAAIAVLEEL
Second: KSEISQVFEIALKRNLPVNFEVARESGPPWMKNFVTKVSVGEFVGEGEGKSKKISKKNAAIAVLEEL
The abundance fitness of the first is higher: -0.255 ± 0.037 for the first, -0.365 ± 0.064 for the second.

Compared with KSEISQVFEIALKRNLPVNFEVARESGPPSMKNFVTKVSVGEFVGEGEGKSKKISKKNAAIAVLEEL, KSEISQVFEIALKRNLPVNFEVARESGPPNMKNFVTKVSVGEFVGEGEGKSKKISKKNAAIAVLEEL is higher in abundance fitness: -0.114 ± 0.043 for the first, 0.078 ± 0.064 for the second.

First: KSEISQVFEIALKRNLPVNFEVARESGPPCMKNFVTKVSVGEFVGEGEGKSKKISKKNAAIAVLEEL
Second: KSEISQVFEIALKRNLPVNFEVARESGPPEMKNFVTKVSVGEFVGEGEGKSKKISKKNAAIAVLEEL
The abundance fitness of the first is lower: -0.207 ± 0.066 for the first, -0.037 ± 0.058 for the second.

Going from KSEISQVFEIALKRNLPVNFEVARESGPPGMKNFVTKVSVGEFVGEGEGKSKKISKKNAAIAVLEEL to KSEISQVFEIALKRNLPVNFEVARESGPPPMKNFVTKVSVGEFVGEGEGKSKKISKKNAAIAVLEEL, the abundance fitness falls from -0.017 ± 0.039 to -0.221 ± 0.046.

KSEISQVFEIALKRNLPVNFEVARESGPPAMKNFVTKVSVGEFVGEGEGKSKKISKKNAAIAVLEEL and KSEISQVFEIALKRNLPVNFEVARESGPPQMKNFVTKVSVGEFVGEGEGKSKKISKKNAAIAVLEEL are within error of each other in abundance fitness: -0.139 ± 0.043 for the first, -0.11 ± 0.055 for the second.

KSEISQVFEIALKRNLPVNFEVARESGPPVMKNFVTKVSVGEFVGEGEGKSKKISKKNAAIAVLEEL and KSEISQVFEIALKRNLPVNFEVARESGPPFMKNFVTKVSVGEFVGEGEGKSKKISKKNAAIAVLEEL are within error of each other in abundance fitness: -0.353 ± 0.045 for the first, -0.278 ± 0.056 for the second.

Compared with KSEISQVFEIALKRNLPVNFEVARESGPPRMKNFVTKVSVGEFVGEGEGKSKKISKKNAAIAVLEEL, KSEISQVFEIALKRNLPVNFEVARESGPPIMKNFVTKVSVGEFVGEGEGKSKKISKKNAAIAVLEEL is lower in abundance fitness: -0.077 ± 0.039 for the first, -0.288 ± 0.066 for the second.

KSEISQVFEIALKRNLPVNFEVARESGPPYMKNFVTKVSVGEFVGEGEGKSKKISKKNAAIAVLEEL and KSEISQVFEIALKRNLPVNFEVARESGPPMMKNFVTKVSVGEFVGEGEGKSKKISKKNAAIAVLEEL are within error of each other in abundance fitness: -0.208 ± 0.054 for the first, -0.115 ± 0.06 for the second.

Going from KSEISQVFEIALKRNLPVNFEVARESGPPHDKNFVTKVSVGEFVGEGEGKSKKISKKNAAIAVLEEL to KSEISQVFEIALKRNLPVNFEVARESGPPHFKNFVTKVSVGEFVGEGEGKSKKISKKNAAIAVLEEL, the abundance fitness falls from 0.199 ± 0.067 to -0.263 ± 0.059.

KSEISQVFEIALKRNLPVNFEVARESGPPHEKNFVTKVSVGEFVGEGEGKSKKISKKNAAIAVLEEL and KSEISQVFEIALKRNLPVNFEVARESGPPHHKNFVTKVSVGEFVGEGEGKSKKISKKNAAIAVLEEL are within error of each other in abundance fitness: 0.103 ± 0.049 for the first, 0.079 ± 0.076 for the second.

Going from KSEISQVFEIALKRNLPVNFEVARESGPPHQKNFVTKVSVGEFVGEGEGKSKKISKKNAAIAVLEEL to KSEISQVFEIALKRNLPVNFEVARESGPPHPKNFVTKVSVGEFVGEGEGKSKKISKKNAAIAVLEEL, the abundance fitness falls from 0.049 ± 0.044 to -0.132 ± 0.051.

First: KSEISQVFEIALKRNLPVNFEVARESGPPHLKNFVTKVSVGEFVGEGEGKSKKISKKNAAIAVLEEL
Second: KSEISQVFEIALKRNLPVNFEVARESGPPHCKNFVTKVSVGEFVGEGEGKSKKISKKNAAIAVLEEL
The abundance fitness of the first is lower: -0.098 ± 0.035 for the first, 0.073 ± 0.047 for the second.

Compared with KSEISQVFEIALKRNLPVNFEVARESGPPHIKNFVTKVSVGEFVGEGEGKSKKISKKNAAIAVLEEL, KSEISQVFEIALKRNLPVNFEVARESGPPHKKNFVTKVSVGEFVGEGEGKSKKISKKNAAIAVLEEL is higher in abundance fitness: -0.12 ± 0.061 for the first, 0.104 ± 0.053 for the second.

KSEISQVFEIALKRNLPVNFEVARESGPPHGKNFVTKVSVGEFVGEGEGKSKKISKKNAAIAVLEEL and KSEISQVFEIALKRNLPVNFEVARESGPPHNKNFVTKVSVGEFVGEGEGKSKKISKKNAAIAVLEEL are within error of each other in abundance fitness: -0.013 ± 0.036 for the first, 0.083 ± 0.068 for the second.
